Here are results for 3 variants from FireProtDB (doi:10.1021/bi015547k).

The chains are these.
B1: Steroid Delta-isomerase, P07445 (parent)
chain: MNLPTAQEVQGLMARYIELVDVGDIEAIVQMYADDATVEDPFGQPPIHGREQIAAFYRQGLGGGKVRACLTGPVRASHNGCGAMPFRVEMVWNGQPCALDVIDVMRFDEHGRIQTMQAYWSEVNLSVREPQ

Variants of B1 are the subject of the data set. To be noted: Pseudomonas putida; pH 7; 25 °C; Urea; CD; potassium phosphate 20 mM; reversible: yes; structure 1OH0; whole UniProt chain shown.

Turning to MNLPTAQEVQGLMARYIELVDVGDIEAIVQMSADDATVEDPFGQPPIHGREQIAAFYRQGLGGGKVRACLTGPVRASHNGCGAMPFRVEMVWNGQPCALDVIDVMRFDEHGRIQTMQAYWSEVNLSVREPQ [Y32S], the denaturant m value was found to be 2.55 kcal/mol/M, the “denaturant midpoint (higher = more stable)” value (from here on “denaturant midpoint”) was 1.56 M and the unfolding free energy is 10.6 kcal/mol.
Regarding MNLPTAQEVQGLMARYIELVDVGDIEAIVQMYADDATVEDPFGQPPIHGREQIAAFSRQGLGGGKVRACLTGPVRASHNGCGAMPFRVEMVWNGQPCALDVIDVMRFDEHGRIQTMQAYWSEVNLSVREPQ [Y57S], the “ddG of mutation (higher = less stable)” value amounted to 9.5 kcal/mol, the denaturant m value was 3.43 kcal/mol/M, the “denaturant midpoint” value is 2.41 M and the unfolding free energy was 14.8 kcal/mol.
As to MNLPTAQEVQGLMARSIELVDVGDIEAIVQMYADDATVEDPFGQPPIHGREQIAAFYRQGLGGGKVRACLTGPVRASHNGCGAMPFRVEMVWNGQPCALDVIDVMRFDEHGRIQTMQAYWSEVNLSVREPQ [Y16S], the denaturant m value turned out to be 2.93 kcal/mol/M, the “denaturant midpoint” value worked out at 1.99 M and the unfolding free energy amounted to 12.4 kcal/mol.
